Source: US7141656

Legend:
[1] = target: membrane-bound single-chain I-A^d-OVA (SCT1 gene, with the alpha chain transmembrane domain) on transfected NS-0 cells (mouse (I-A^d); chicken (OVA peptide)); experiment: flow cytometry, FITC-conjugated AMS 32.1 1:100, T12 (SCT1-transfectant) cells
[2] = target: soluble single-chain I-A^d-OVA with EE antibody tag (SCE1 gene), secreted by transfected NSO cells (mouse (I-A^d); chicken (OVA peptide)); experiment: sandwich I-A^d ELISA of Example 18 (M5/114 capture, biotinylated AMS-32.1 probe); undiluted supernatant of E10 (SCE1 transfectant)
[3] = target: soluble single-chain I-A^d-OVA (SSC1 gene; 6xHis tag), produced in SF9 insect cells (mouse (I-A^d); chicken (OVA peptide)); experiment: sandwich I-A^d ELISA, M5/114 capture, biotinylated AMS-32.1 probe, 405 nm; cotransfection supernatant diluted 1:2
[4] = target: Neuron Specific Enolase (NSE), in supernatant of SF9 cells infected with a recombinant Baculovirus; experiment: sandwich I-A^d ELISA, M5/114 capture, biotinylated AMS-32.1 probe; supernatant of SF9 cells infected with NSE Baculovirus
[5] = target: soluble single-chain I-A^d-OVA (SSC1 gene; 6xHis tag), produced in SF9 insect cells (mouse (I-A^d); chicken (OVA peptide)); experiment: sandwich I-A^d ELISA, M5/114 capture, biotinylated AMS-32.1 probe, 405 nm; cotransfection supernatant diluted 1:8
[6] = target: soluble single-chain I-A^d-OVA (SSC1 gene; 6xHis tag), produced in SF9 insect cells (mouse (I-A^d); chicken (OVA peptide)); experiment: sandwich I-A^d ELISA, M5/114 capture, biotinylated AMS-32.1 probe; supernatant of virus clone F8
[7] = target: soluble single-chain I-A^d-OVA (SSC1 gene; 6xHis tag), produced in SF9 insect cells (mouse (I-A^d); chicken (OVA peptide)); experiment: sandwich I-A^d ELISA, M5/114 capture, biotinylated AMS-32.1 probe, 405 nm; cotransfection supernatant undiluted
[8] = target: soluble single-chain I-A^d-OVA (SSC1 gene; 6xHis tag), produced in SF9 insect cells (mouse (I-A^d); chicken (OVA peptide)); experiment: sandwich I-A^d ELISA, M5/114 capture, biotinylated AMS-32.1 probe, 405 nm; cotransfection supernatant diluted 1:4
[9] = target: soluble single-chain I-A^d-OVA (SSC1 gene; 6xHis tag), produced in SF9 insect cells (mouse (I-A^d); chicken (OVA peptide)); experiment: sandwich I-A^d ELISA, M5/114 capture, biotinylated AMS-32.1 probe; supernatant of virus clone C6
[10] = target: soluble single-chain I-A^d-OVA with EE antibody tag (SCE1 gene), secreted by transfected NSO cells (mouse (I-A^d); chicken (OVA peptide)); experiment: sandwich I-A^d ELISA of Example 18 (M5/114 capture, biotinylated AMS-32.1 probe); undiluted supernatant of E11 (SCE1 transfectant)
[11] = target: membrane-bound single-chain I-A^d-OVA (SCT1 gene, with the alpha chain transmembrane domain) on transfected NS-0 cells (mouse (I-A^d); chicken (OVA peptide)); experiment: flow cytometry, FITC-conjugated AMS 32.1 1:100, T2 (SCT1-transfectant) cells
[12] = target: soluble single-chain I-A^d-OVA (SSC1 gene; 6xHis tag), produced in SF9 insect cells (mouse (I-A^d); chicken (OVA peptide)); experiment: sandwich I-A^d ELISA of Example 18 (M5/114 capture, biotinylated AMS-32.1 probe); sc I-A^d-OVA from insect cell culture (positive control)
[13] = target: membrane-bound single-chain I-A^d-OVA (SCT1 gene, with the alpha chain transmembrane domain) on transfected NS-0 cells (mouse (I-A^d); chicken (OVA peptide)); experiment: flow cytometry, FITC-conjugated AMS 32.1 1:100, T6 (SCT1-transfectant) cells
[14] = target: full-length murine I-A^d/OVA 323-339 MHC class II fusion complex (pJRS165.1) expressed on NSO cells (mouse; chicken) (UniProt P04228); experiment: flow cytometry, FITC-conjugated isotype matched irrelevant antibody 1:100, clone NSO/IA^d/OVA.B4
[15] = target: murine class II MHC molecule I-A^d on A20.1-11 cells (mouse) (UniProt P04228); experiment: flow cytometry, FITC-conjugated isotype matched irrelevant antibody 1:100, A20.1 cells (+ control)
[16] = target: full-length murine I-A^d/OVA 323-339 MHC class II fusion complex (pJRS165.1) expressed on NSO cells (mouse; chicken) (UniProt P04228); experiment: flow cytometry, FITC-conjugated isotype matched irrelevant antibody 1:100, clone NSO/IA^d/OVA.A4
[17] = target: full-length murine I-A^d/OVA 323-339 MHC class II fusion complex (pJRS165.1) expressed on NSO cells (mouse; chicken) (UniProt P04228); experiment: flow cytometry, FITC-conjugated isotype matched irrelevant antibody 1:100, clone NSO/IA^d/OVA.B5
[18] = target: full-length murine I-A^d/OVA 323-339 MHC class II fusion complex (pJRS165.1) expressed on NSO cells (mouse; chicken) (UniProt P04228); experiment: flow cytometry, FITC-conjugated isotype matched irrelevant antibody 1:100, clone NSO/IA^d/OVA.B2
[19] = target: membrane-bound single-chain I-A^d-OVA (SCT1 gene, with the alpha chain transmembrane domain) on transfected NS-0 cells (mouse (I-A^d); chicken (OVA peptide)); experiment: flow cytometry, FITC-conjugated 10-3.6 1:100 (negative control), T12 (SCT1-transfectant) cells
[20] = target: membrane-bound single-chain I-A^d-OVA (SCT1 gene, with the alpha chain transmembrane domain) on transfected NS-0 cells (mouse (I-A^d); chicken (OVA peptide)); experiment: flow cytometry, FITC-conjugated 10-3.6 1:100 (negative control), T6 (SCT1-transfectant) cells
[21] = target: membrane-bound single-chain I-A^d-OVA (SCT1 gene, with the alpha chain transmembrane domain) on transfected NS-0 cells (mouse (I-A^d); chicken (OVA peptide)); experiment: flow cytometry, FITC-conjugated 10-3.6 1:100 (negative control), T2 (SCT1-transfectant) cells
[22] = target: T cell receptor of the murine T cell hybridoma DO11.10 (specific for OVA 323-339 in the context of I-A^d) (mouse); experiment: cell-based or functional assay

## AMS-32.1 anti-IA^d monoclonal antibody (PharMingen)
[1]
  Mean Fluorescence: 911
[2]
  Absorbance: 0.781
[3]
  Absorbance: 0.524
[4]
  Absorbance: 0.098
[5]
  Absorbance: 0.165
[6]
  Absorbance: 1.45
[7]
  Absorbance: 0.857
[8]
  Absorbance: 0.305
[9]
  Absorbance: 1.56
[10]
  Absorbance: 0.96
[11]
  Mean Fluorescence: 613
[12]
  Absorbance: 2.44
[13]
  Mean Fluorescence: 418

## FITC-conjugated anti-IA^k antibody (Pharmingen), isotype matched irrelevant antibody, Example 13
[14]
  peak channel fluorescence: 11
[15]
  peak channel fluorescence: 5
[16]
  peak channel fluorescence: 34
[17]
  peak channel fluorescence: 10
[18]
  peak channel fluorescence: 14

## 10-3.6 anti-I-A^k antibody (PharMingen), isotype matched negative control
[19]
  Mean Fluorescence: 45.9
[20]
  Mean Fluorescence: 45.1
[21]
  Mean Fluorescence: 22

B1: soluble single-chain I-A^d-OVA (SSC1 gene; 6xHis tag), produced in SF9 insect cells (peptide-MHC)
chain: TMALQIPSLLLSAAVVVLMVLSSPRTLSISQAVHAAHAEINEAGRASGGGGSGGGGNSERHFVVQFKGECYYTNGTQRIRLVTRYIYNREEYVRYDSDVGEYRAVTELGRPDAEYWNSQPEILERTRAEVDTACRHNYEGPETSTSLRRLEQPNVAISLSRTEALNHHNTLVCSVTDFYPAKIKVRWFRNGQEETVGVSSTQLIRNGDWTFQVLVMLEMTPHQGEVYTCHVEHPSLKSPITVEWTSGGGGSGGGGSGGGGSGGGGSSSEDDIEADHVGFYGTTVYQSPGDIGQYTHEFDGDELFYVDLDKKKTVWRLPEFGQLILFEPQGGLQNIAAEKHNLGILTKRSNFTPATNEAPQATVFPKSPVLLGQPNTLICFVDNIFPPVINITWLRNSKSVTDGVYETSFLVNRDHSFHKLSYLTFIPSDDDIYDCKVEHWGLEEPVLKHWSRASHHHHHH
[22]
  IL-2 concentration in DO11 super (U/ml) at 39 ng/well immobilized scIA^d-OVA, extended dilution: 0 U/ml
  IL-2 concentration in DO11 super (U/ml) at 78 ng/well immobilized sc IA^d-OVA: 45 U/ml
  IL-2 concentration in DO11 super (U/ml) at 78 ng/well immobilized scIA^d-OVA, extended dilution: 17 U/ml
  IL-2 concentration in DO11 super (U/ml) at 156 ng/well immobilized sc IA^d-OVA: 100 U/ml
  IL-2 concentration in DO11 super (U/ml) at 156 ng/well immobilized scIA^d-OVA, extended dilution: 24 U/ml
  IL-2 concentration in DO11 super (U/ml) at 312 ng/well immobilized sc IA^d-OVA: 109 U/ml
  IL-2 concentration in DO11 super (U/ml) at 312 ng/well immobilized scIA^d-OVA, extended dilution: 35 U/ml
  IL-2 concentration in DO11 super (U/ml) at 625 ng/well immobilized sc IA^d-OVA: 116 U/ml
  IL-2 concentration in DO11 super (U/ml) at 625 ng/well immobilized scIA^d-OVA, extended dilution: 38 U/ml
  IL-2 concentration in DO11 super (U/ml) at 1250 ng/well immobilized sc IA^d-OVA: 126 U/ml
  IL-2 concentration in DO11 super (U/ml) at 2500 ng/well immobilized sc IA^d-OVA: 143 U/ml
  IL-4 concentration in DO11 super (U/ml) at 78 ng/well immobilized sc IA^d-OVA: 7 U/ml
  IL-4 concentration in DO11 super (U/ml) at 156 ng/well immobilized sc IA^d-OVA: 10 U/ml
  IL-4 concentration in DO11 super (U/ml) at 312 ng/well immobilized sc IA^d-OVA: 16 U/ml
  IL-4 concentration in DO11 super (U/ml) at 625 ng/well immobilized sc IA^d-OVA: 15 U/ml
  IL-4 concentration in DO11 super (U/ml) at 1250 ng/well immobilized sc IA^d-OVA: 20 U/ml
  IL-4 concentration in DO11 super (U/ml) at 2500 ng/well immobilized sc IA^d-OVA: 23 U/ml
  IL-r [IL-4] concentration in DO11 super (U/ml) at 39 ng/well immobilized scIA^d-OVA, extended dilution: 0 U/ml
  IL-r [IL-4] concentration in DO11 super (U/ml) at 78 ng/well immobilized scIA^d-OVA, extended dilution: 0.8 U/ml
  IL-r [IL-4] concentration in DO11 super (U/ml) at 156 ng/well immobilized scIA^d-OVA, extended dilution: 0.9 U/ml
  IL-r [IL-4] concentration in DO11 super (U/ml) at 312 ng/well immobilized scIA^d-OVA, extended dilution: 1.5 U/ml
  IL-r [IL-4] concentration in DO11 super (U/ml) at 625 ng/well immobilized scIA^d-OVA, extended dilution: 2 U/ml

B2: membrane-bound single-chain I-A^d-OVA (SCT1 gene, with the alpha chain transmembrane domain) on transfected NS-0 cells (peptide-MHC)
chain: TMALQIPSLLLSAAVVVLMVLSSPRTLSISQAVHAAHAEINEAGRASGGGGSGGGGNSERHFVVQFKGECYYTNGTQRIRLVTRYIYNREEYVRYDSDVGEYRAVTELGRPDAEYWNSQPEILERTRAEVDTACRHNYEGPETSTSLRRLEQPNVAISLSRTEALNHHNTLVCSVTDFYPAKIKVRWFRNGQEETVGVSSTQLIRNGDWTFQVLVMLEMTPHQGEVYTCHVEHPSLKSPITVEWTSGGGGSGGGGSGGGGSGGGGSSSEDDIEADHVGFYGTTVYQSPGDIGQYTHEFDGDELFYVDLDKKKTVWRLPEFGQLILFEPQGGLQNIAAEKHNLGILTKRSNFTPATNEAPQATVFPKSPVLLGQPNTLICFVDNIFPPVINITWLRNSKSVTDGVYETSFLVNRDHSFHKLSYLTFIPSDDDIYDCKVEHWGLEEPVLKHWEPEIPAPMSELTETVVCALGLSVGLVGIVVGTIFIIQGLRSGGTSRHPGPL
[22]
  IL-2 ELISA result (Absorbance), DO11.10 with T2 (SCT1 transfectant) cells: 0.758
  IL-2 ELISA result (Absorbance), DO11.10 with T6 (SCT1 transfectant) cells: 0.307
  IL-2 ELISA result (Absorbance), DO11.10 with T12 (SCT1 transfectant) cells: 1.03
